# Experimental data from paper PMC3795569, “Crystal structure of the N-terminal domain of MinC dimerized via domain swapping” (Journal of Synchrotron Radiation, 2013).
# B1: Escherichia coli MinC N-terminal domain (EcoMinCNTD), residues 1-105 (domain or fragment, UniProt P18196 1-105, looked up)
# chain: MSNTPIELKGSSFTLSVVHLHEAEPKVIHQALEDKIAQAPAFLKHAPVVLNVSALEDPVNWSAMHKAVSATGLRVIGVSGCKDAQLKAEIEKMGLPILTEGKEKA
# notes: MinC (septum site-determining protein), Escherichia coli, N-terminal domain, residues 1-105; amplified from E. coli genomic DNA (ATCC No. 700926D-5); Cloned into a modified pET-28a vector (BamHI/XhoI); The printed molecular weight is 11863 Da; also called unfused-EcoMinCNTD; source: E. coli BL21 (DE3), purified (Ni-NTA, TEV cleavage, size-exclusion chromatography)
# Target: the molecule itself
# Experiment: SEC; size-exclusion chromatography of EcoMinCNTD in a broad range of protein concentrations
protein,measurement,value
B1,stoichiometry N,2
